Measurements: US20050048066A1 (published 2005)

B1: AChRα peptide 400-413 (peptide, UniProt P02708 420-433, looked up)
peptide: KYVAMVMDHILLGV
B2: AChRα peptide 36-49 (peptide, UniProt P02708 56-69, looked up)
peptide: QLIQLINVDEVNQI
notes: range 36-49; also called AChRα 36-49
B3: AChRα peptide 204-217 (peptide, UniProt P02708 224-237, looked up)
peptide: HFVMQRLPLYFIVN

Target: HLA-DR1 (human)
Test: competitive binding assay; DR1 format not described

Question: For B1, which IC50 is on record?
Answer: 11.7 µM

Question: How did the IC50 turn out when B2 was run?
Answer: 11.2 µM

Question: With B3 as the binder, how does the IC50 read?
Answer: 1.75 µM
